{"source": "patent US20060234945A1", "about": "“Ophthalmic therapeutic composition” (Nihon Tenganyaku Kenkyusho Co., LTD., priority 2002, published 2006)", "tested_on": "rabbit corneal wound model", "assay": "Corneal wound healing promotion action 1 (in vivo), approx. 6 mm corneal epithelial abrasion", "set-up": "species or system Japanese white rabbit", "conditions": "5 μM eye drop", "description": "(2) Corneal Wound Healing Promotion Action 1 (In Vivo)\nUsing a male Japanese white rabbit, a wound of approximately 6 mm in diameter was produced in the cornea by inducing corneal epithelial abrasion in accordance with the method of Cintron et al. (Ophthalmic Res., 11, pp. 90-96 (1979)). The wound area was measured using the fluorescein-stained area as an index. The effects of the test compound on corneal wound healing were examined.\nThe eye drops containing the respective concentrations of the test compound were instilled (30 μl at a time) at 0, 3, 6, 9, 12, 18, 24, 27, 30, 33, 36, 42, and 48 hours after inducing corneal epithelial abrasion. In measuring the wound area, fluorescein staining was carried out and a photograph of the cornea was measured. The fluorescein-stained area of the photographed cornea was computed using an image analysis processing system.\nIn Tables 1 and 2, the respective values indicate the mean value±standard deviation (n=6). Statistical analysis was carried out using Dunnett's multiple comparison with respect to PBS with the area of the corneal wound portion immediately after (0 hours after) corneal epithelial abrasion being set to 100% (*p<0.05, ** p<0.01; vs. control)."}
{"molecule": "EGF: Epidermal Growth Factor, polypeptide with a molecular weight of 6000, mitosis-promoting growth factor for corneal epithelium (protein, UniProt P01133 23-1207, looked up, Pro-epidermal growth factor, Epidermal Growth Factor, polypeptide with a molecular weight of 6000, mitosis-promoting growth factor for corneal epithelium) Pro-epidermal growth factor: PQHWSCPEGTLAGNGNSTCVGPAPFLIFSHGNSIFRIDTEGTNYEQLVVDAGVSVIMDFHYNEKRIYWVDLERQLLQRVFLNGSRQERVCNIEKNVSGMAINWINEEVIWSNQQEGIITVTDMKGNNSHILLSALKYPANVAVDPVERFIFWSSEVAGSLYRADLDGVGVKALLETSEKITAVSLDVLDKRLFWIQYNREGSNSLICSCDYDGGSVHISKHPTQHNLFAMSLFGDRIFYSTWKMKTIWIANKHTGKDMVRINLHSSFVPLGELKVVHPLAQPKAEDDTWEPEQKLCKLRKGNCSSTVCGQDLQSHLCMCAEGYALSRDRKYCEDVNECAFWNHGCTLGCKNTPGSYYCTCPVGFVLLPDGKRCHQLVSCPRNVSECSHDCVLTSEGPLCFCPEGSVLERDGKTCSGCSSPDNGGCSQLCVPLSPVSWECDCFPGYDLQLDEKSCAASGPQPFLLFANSQDIRHMHFDGTDYGTLLSQQMGMVYALDHDPVENKIYFAHTALKWIERANMDGSQRERLIEEGVDVPEGLAVDWIGRRFYWTDRGKSLIGRSDLNGKRSKIITKENISQPRGIAVHPMAKRLFWTDTGINPRIESSSLQGLGRLVIASSDLIWPSGITIDFLTDKLYWCDAKQSVIEMANLDGSKRRRLTQNDVGHPFAVAVFEDYVWFSDWAMPSVMRVNKRTGKDRVRLQGSMLKPSSLVVVHPLAKPGADPCLYQNGGCEHICKKRLGTAWCSCREGFMKASDGKTCLALDGHQLLAGGEVDLKNQVTPLDILSKTRVSEDNITESQHMLVAEIMVSDQDDCAPVGCSMYARCISEGEDATCQCLKGFAGDGKLCSDIDECEMGVPVCPPASSKCINTEGGYVCRCSEGYQGDGIHCLDIDECQLGEHSCGENASCTNTEGGYTCMCAGRLSEPGLICPDSTPPPHLREDDHHYSVRNSDSECPLSHDGYCLHDGVCMYIEALDKYACNCVVGYIGERCQYRDLKWWELRHAGHGQQQKVIVVAVCVVVLVMLLLLSLWGAHYYRTQKLLSKNPKNPYEESSRDVRSRRPADTEDGMSSCPQPWFVVIKEHQDLKNGGQPVAGEDGQAADGSMQPTSWRQEPQLCGMGTEQGCWIPVSSDKGSCPQVMERSFHMPSYGTQTLEGGVEKPHSLLSANPLWQQRALDPPHQMELTQ", "values": [{"measurement": "Healing ratio (%)", "setting": "0 hr (baseline)", "value": 0, "unit": "%"}, {"measurement": "Healing ratio (%)", "setting": "6 hr", "value": "14.49 ± 3.42", "unit": "%"}, {"measurement": "Healing ratio (%)", "setting": "12 hr", "value": "31.63 ± 1.29", "unit": "%"}, {"measurement": "Healing ratio (%)", "setting": "24 hr", "value": "70.78 ± 6.91", "unit": "%"}, {"measurement": "Healing ratio (%)", "setting": "36 hr", "value": "96.41 ± 3.97", "unit": "%"}, {"measurement": "Healing ratio (%)", "setting": "48 hr", "value": "99.58 ± 1.03", "unit": "%"}]}
